According to patent US20180333482A1 (LOYOLA UNIVERSITY OF CHICAGO, published 2018):

Biological target: the molecule itself
Assay: dynamic light scattering, self-association

B1: recombinant wild-type MHV nsp15 protein, SUMO-fusion protein purified from E. coli (enzyme)
chain: SLENVVYNLVNAGHFDGRAGELPCAVIGEKVIAKIQNEDVVVFKNNTPFPTNVAVELFAKRSIRPHPELKLFRNLNIDVCWSHVLWDYAKDSVFCSSTYKVCKYTDLQCIESLNVLFDGRDNGALEAFKKCRNGVYINTTKIKSLSMIKGPQRADLNGVVVEKVGDSDVEFWFAVRKDGDDVIFSRTGSLEPSHYRSPQGNPGGNRVGDLSGNEALARGTIFTQSRLLSSFTPRSEMEKDFMDLDDDVFIAKYSLQDYAFEHVVYGSFNQKIIGGLHLLIGLARRQQKSNLVIQEFVTYDSSIHSYFITDENSGSSKSVCTVIDLLLDDFVDIVKSLNLKCVSKVVNVNVDFKDFQFMLWCNEEKVMTFYPRLQ
notes: domain: nsp15; also called WT nsp15; WT MHV Nsp15; not shown: His-SUMO tag from the pET-His-SUMO vector
binding result: binds
